EC50 (read off the curve) data for one substance are collected here from patent US20240024504A1, “SITE-SELECTIVE LYSINE ACETYLATION OF HUMAN IMMUNOGLOBULIN G AND IgG-RELATED PRODUCTS FOR IMMUNOTHERAPY” (The Chinese University of Hong Kong, priority 2022, published 2024).

This assay concerns the target Atezolizumab. The assay is described as follows: microscale thermophoresis instrument, ligand-induced fluorescence change; f-F0 held at 10 nM, the concentration axis is that of atezolizumab.

For the substance “peptide f-F0 (FITC-labeled parental Fc-III peptide F0, disulfide bond replaced by a thioether bond)”, the EC50 (read off the curve) (as a rule, the concentration giving half of the maximal effect) is 20 nM.
